Reference: patent publication US11207423B2, “Nanocarriers having surface conjugated peptides and uses thereof for sustained local release of drugs” (Northwestern University, priority 2016, dated 2021)
Ends that are not written are not given here.

Key:
[1] = Rabbit eye clearance of Cy7-tagged nanoparticles by in vivo imaging (IVIS)
Method: FIG. 8. Slowed rabbit eye clearance in vivo with Cy7-tagged 3R-peptide CDEX conjugate. 20 μl of anchor peptide amino-PEG8-RRYRL-amide (SEQ ID NO:5) conjugate to CDEX (2.5 mg/ml) along with conjugated 0.05 moles/particle Cy7-amine was injected into rabbit eyes on day one. Left eye 14 peptides/particle, right eye 21 peptides/particle.
FIG. 10. In vivo charge and zeta potential-dependent loss of NP from rabbit vitreous expressed as a percentage of the first measured photon flux at day 10 post-injection (taken as day 0). Volume of injection: 25 μl; nanocarrier concentration: 3 mg/ml. [Control: CDEX70-0: (n=2). CDEX70-2R; 64 peptides per particle by BCA (n=3) and CDEX70-3R; 61 peptides per particle by BCA (n=3)]. Half-lives: CDEX-0: 4 days; CDEX-2R: 7 days; CDEX70-3R: 13 days. 2R and 3R peptides are respectively (SEQ ID NO:4) and (SEQ ID NO:5) linked as carbamates of 3pyrrolidineCO-amido-PEG8-CO-peptide to Cy7-CDEX70. Cy7 amine is carbamate-linked at <1 mole/mole NP.
Thus BCA protein analysis of increasing peptide, with time in filtrate after 30 kDa filtration of a loaded carrier sample in buffer estimates the half-life for peptide release in buffer. For confirmation in actual vitreous humor (e.g., rabbit) at time points post injection LC-MS estimation of the peptide in vitreous extract follows precipitation of excess HA after adding 3 volumes of ethanol. […] Free intravitreal peptide is assayed after centrifugation via 30 kDa MWCO spin filter.
Retention of the NP in vitreous was tested in vivo in rabbits. 25 μl of CDEX70-2R-Cy7 (SEQ ID NO:4) 3 mg/ml or CDEX70-3R-Cy7 (SEQ ID NO:5) 3 mg/ml was administered by intravitreal injection and imaged via an IVIS scan after 4 weeks and nine weeks. Left: 4-week experiment. (See FIG. 9). The in vivo diffusion dependent loss of NP from rabbit vitreous expressed as percentage of the first measurement at day 10 post-injection (taken as day 0) is provided in FIG. 10. The determined half-lives of the NP is as follows: CDEX-0-Cy7: 4 days; CDEX-2R-Cy7: 7 days; CDEX70-3R-Cy7: 13 days. In vivo diffusion-dependent loss of NP from rabbit vitreous expressed as Flux of the first measurement at day 10 post-injection (taken as day 0) of CDEX70-2R-Cy7 at 4 different concentrations [Control: 0 mg/ml (n=6). 3 mg/ml (n=3).

[2] = Zeta potential measurement (electrophoretic light scattering); type: physicochemical
Method: (§1) Sample characteristics (particle size, polydispersity and zeta-potential) were measured by a dynamic light scattering method using Malvern Zeta Sizer Nano-S90 instrument according to the manufacturer recommendations. Briefly, hydrodynamic diameter (dh) and polydispersity index (PDI) of nanogel/microgels were obtained for 1 mg/mL aqueous solutions at 25° C. in triplicates after sonication for 30 min and centrifugation at 12,000 rpm. Zeta-potential of the samples was measured for the same solutions in standard 1 cm-cuvettesusing zeta-potential option in the company's software. Average of five measurements±SD was registered.
(§2) Peptide concentration was estimated by BCA (Pierce) protein assay against a standard curve of free peptide. Zeta potential and size was measured on non-rhodamine product using electrophoretic light scattering and dynamic light scattering, respectively (Zetasizer, Malvern). The Z averaged particle size is 15 nm and the full width at half maximum of the distribution peak is 24 nm. Zeta potentials for 1-Arg, 2-Arg, 3-Arg and 4-Arg peptide conjugates were 0.07 mV, 2.2 mV, 4.6 mV and 9.2 mV respectively (Table 2).

[3] = Particle size measurement (dynamic light scattering); type: physicochemical
Method: as §1, §2

[4] = human vitreous; cited from earlier work
[5] = test system: laser-induced choroidal neovascularization (CNV); conditions: single intravitreal injection of 1-ul 4 mg/ml 2 days before laser wounding; angiogenesis markers 14 days later
Method: FIG. 12B. […] A single injection of 1-ul 4 mg/ml peptide (SEQ ID NO:6) or control is injected into mouse vitreous 2 days before laser wounding of the retina. Angiogenesis markers are detected by antibody stain, 14 days later.

CDEX-3R-Cy7: Cy7-CDEX70 carbamate-linked to 3-pyrrolidine-CONH-PEG(8)-CO-Arg-Arg-Tyr-Arg-Leu-NH2 (SEQ ID NO:5) (RRYRL-NH2; not fully specified (N-terminus); printed as 3-pyrrolidine-CONH-PEG(8)-CO-Arg-Arg-Tyr-Arg-Leu-NH2; also: carbamate-linked to Cy7-CDEX70 nanocarrier)
half-life of NP in rabbit vitreous ([1]; intravitreal 25 μl, 3 mg/ml, photon flux relative to day 10 post-injection (taken as day 0)): 13 days
retention in eye compared with 2R peptide conjugate at similar peptide loading ([1]; rabbit, IVIS scans after 4 and 9 weeks): retained longer in the eye
Zeta potential [2]: 6.34 ± 1.28 mV
Particle size [3]: 81.69 ± 7.44 nm

CDEX-AP3: CDI-activated CDEX nanogel carbamate-linked to AP3, amino-PEG(12)-CO-Arg-Arg-Ser-Arg-amide (SEQ ID NO:19) (RRSR-NH2; not fully specified (N-terminus); printed as amino-PEG(12)-CO-Arg-Arg-Ser-Arg-amide; also: carbamate-linked to CDI-activated CDEX nanogel)
Zeta potential [2]: 4.58 mV
Particle size [3]: 124 ± 1.4 nm

Cy7-tagged 3R-peptide CDEX conjugate: Anchor peptide amino-PEG8-RRYRL-amide (SEQ ID NO:5) conjugated to CDEX with 0.05 moles/particle Cy7-amine; 14 or 21 peptides/particle (RRYRL-NH2; not fully specified (N-terminus); printed as amino-PEG8-RRYRL-amide; also: Cy7-amine on CDEX particle)
fluorescence lost ([1]; rabbit left eye, 14 peptides/particle, 20 μl of 2.5 mg/ml): > 90%
residence in eye ([1]; rabbit right eye, 21 peptides/particle, 20 μl of 2.5 mg/ml): longer residence of conjugate in eye

Ranibizumab: a VEGF inhibitor for treatment of advanced AMD
half-life in vitreous [4]: approximately 9 days

adipic-Sar-Tyr-Asn-Leu-Tyr-Arg-Val-Arg-Ser-NH2 [SEQ ID NO:6]
retinal protective activity [5]: reduction of laser-induced choroidal neovascularization (CNV)
